What was measured:
[1] = target: T1, human HER3-His extracellular-domain protein (human, UniProt P21860 20-643); assay: SPR, Biacore T200, both orientations
T1 construct: extracellular domain; Bought protein; not shown: His tag
Procedure: (§1) SPR binding assay—The affinity of Nbs to HER2 or HER3 was determined in two ways by using surface plasmon resonance (SPR) spectroscopy. SPR measurements were performed on a Biacore T200 instrument. In one layout, purified Nb38 (10 μg/ml) and Nb46 (20 μg/ml) were immobilized on a CM5 chip using an amine coupling kit (GE Healthcare, Chicago, IL). The analytes, human HER2-His or HER3-His extracellular-domain proteins (R&D systems, Minneapolis, MN) dissolved in PBST (PBS supplemented with 0.05% Tween-20 v/v), were flown at 30 μl/min, and the chip was regenerated using 2 mM NaOH. In a second layout, the purified human HER2-His or HER3-His extracellular-domain proteins, at 10 μg/ml, were immobilized on a CM5 chip). The analytes, NB46 and NB38 (and NB7 as a negative control), were flown at 30 μl/min in PBST, and the chip was regenerated using 20 mM glycine. Binding was allowed for 180 s and dissociation for 600 s. Curves were fitted using Biacore's evaluation software using a 1:1 ligand:analyte binding model to retrieve association rate constants (ka), dissociation rate constants (kd), and equilibrium dissociation constants (KD, a measurement of affinity).

[2] = target: T2, human HER2-His extracellular-domain protein (human, UniProt P04626 23-652); assay: SPR, Biacore T200; average of the two orientations
T2 construct: extracellular domain; Bought protein; also called recombinant HER2; not shown: His tag
Procedure: as §1

[3] = target: T3, human epidermal growth factor receptor 2 (HER2), on cells (human, UniProt P04626 23-1255); assay: flow cytometry titration on SkBr3 HER2+ breast cancer cells
T3 construct: whole, on cells; Target of the flow cytometry and imaging experiments (HEK 293 cells expressing HER2; SkBr3 cells); also called ErbB2; HER2 receptor
Procedure: (§2) FIGS. 6A-6D. Nb46 binding to HER2 cell-receptors by FACS analysis. […] The fluorescent signal was subtracted from that of cells incubated with the antibody alone and normalized relative to the highest signal (FIG. 6B), n=3. FIG. 6C—Affinity binding of NB46 with SkBr3 cells conducted with and without 1.8 mM Neuregulin-1 (NRG) following 1 hour incubation. Data was fitted with a sigmoidal curve in Excel (dashed lines), n=3.
(§3) Nb46 binding of HER2+ cancer cells—SkBr3 cells were grown to 70-90% confluency in T-75 flasks overnight. The cells were detached by aspirating the medium and washing cells with 10 mL hot PBS before pipetting 5 mL of non-enzymatic cell dissociation solution (Biological Industries, Beit Haemek, Israel) and incubating for 5 minutes at 37° C. […] The cells were Incubated for 1 h at 4° C. on a tubes rotator after which the cells were washed off of unbound Nb; cells were centrifuged at 350 g for 5 minutes, supernatant discarded, and cells resuspend in 900 μL of PBS-FBS, repeatedly for 3 times. After the 3rd centrifugation, the cells were resuspended in 300 μL PBS-FBS containing iFluor488-conjugated anti-camelid VHH (1:1000, Genescript, NJ, USA), and incubated for additional 1 h at 4° C. on a tubes rotator, in the dark. […]

[4] = target: T2, human HER2-His extracellular-domain …; assay: SPR, Biacore T200; HER2 immobilized (ligand), Nb46 as analyte
Procedure: as §1

[5] = target: T2, human HER2-His extracellular-domain …; assay: SPR, Biacore T200; Nb46 immobilized (ligand), HER2 as analyte
Procedure: as §1

[6] = target: T2, human HER2-His extracellular-domain …; assay: SPR, Biacore T200; average of the two orientations; average of the two orientations
Procedure: as §1

[7] = target: T3, human epidermal growth factor receptor …; assay: flow cytometry on HEK 293 cells expressing HER2, anti-VHH-488 detection, n=3
Procedure: as §2

human HER3, on cells [8] = target: T4, human HER3, on cells (human, UniProt P21860 20-1342); assay: flow cytometry on HEK 293 cells expressing HER3, anti-VHH-488 detection, n=3
T4 construct: whole, on cells; also called ErbB3
T4 sequence (P21860 20-1342): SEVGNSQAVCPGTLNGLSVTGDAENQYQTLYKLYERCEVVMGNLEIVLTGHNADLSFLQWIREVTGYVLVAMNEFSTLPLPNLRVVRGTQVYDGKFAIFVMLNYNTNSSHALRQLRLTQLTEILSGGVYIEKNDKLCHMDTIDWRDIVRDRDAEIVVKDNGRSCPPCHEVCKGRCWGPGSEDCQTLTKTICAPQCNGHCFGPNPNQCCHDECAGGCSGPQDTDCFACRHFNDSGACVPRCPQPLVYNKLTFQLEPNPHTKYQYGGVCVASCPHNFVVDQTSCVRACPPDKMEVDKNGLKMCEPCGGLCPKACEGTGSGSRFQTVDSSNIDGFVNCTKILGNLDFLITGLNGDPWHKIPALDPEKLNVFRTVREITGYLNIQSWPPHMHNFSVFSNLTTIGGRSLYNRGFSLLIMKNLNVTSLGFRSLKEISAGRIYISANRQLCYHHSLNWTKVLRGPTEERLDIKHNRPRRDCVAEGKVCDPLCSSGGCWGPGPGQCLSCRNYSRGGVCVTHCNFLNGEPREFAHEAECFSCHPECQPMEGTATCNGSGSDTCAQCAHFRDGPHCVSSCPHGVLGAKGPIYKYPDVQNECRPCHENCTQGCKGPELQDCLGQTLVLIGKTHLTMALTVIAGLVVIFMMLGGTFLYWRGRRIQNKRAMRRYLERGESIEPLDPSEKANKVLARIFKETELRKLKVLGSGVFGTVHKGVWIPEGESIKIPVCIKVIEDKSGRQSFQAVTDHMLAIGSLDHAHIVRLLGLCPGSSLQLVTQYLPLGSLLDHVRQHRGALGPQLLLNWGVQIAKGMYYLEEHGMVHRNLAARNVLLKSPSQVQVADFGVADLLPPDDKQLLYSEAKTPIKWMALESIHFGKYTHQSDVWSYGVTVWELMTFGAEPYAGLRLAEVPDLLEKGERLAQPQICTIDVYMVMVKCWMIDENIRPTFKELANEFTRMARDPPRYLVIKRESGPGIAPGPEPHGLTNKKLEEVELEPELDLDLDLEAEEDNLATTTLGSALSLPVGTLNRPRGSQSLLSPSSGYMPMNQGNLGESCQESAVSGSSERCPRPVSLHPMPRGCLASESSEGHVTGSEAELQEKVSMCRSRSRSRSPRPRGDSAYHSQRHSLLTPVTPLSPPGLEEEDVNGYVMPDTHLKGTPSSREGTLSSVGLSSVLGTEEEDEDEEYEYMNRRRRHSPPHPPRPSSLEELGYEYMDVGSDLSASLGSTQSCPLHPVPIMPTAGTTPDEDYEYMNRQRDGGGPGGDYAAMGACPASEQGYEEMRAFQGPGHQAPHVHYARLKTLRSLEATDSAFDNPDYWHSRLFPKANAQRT

[9] = target: T3, human epidermal growth factor receptor …; assay: flow cytometry on SkBr3 cells without Neuregulin-1, anti-VHH-488 detection, n=3
Procedure: as §2, §3

[10] = target: T2, human HER2-His extracellular-domain …; assay: SPR, Biacore T200; HER2-His ECD immobilized, Nb46 as analyte; HER2 immobilized, Nb46 as analyte
Procedure: as §1

[11] = target: T2, human HER2-His extracellular-domain …; assay: SPR, Biacore T200; Nb46 immobilized, HER2-His ECD as analyte; Nb46 immobilized, HER2 as analyte
Procedure: as §1

[12] = target: T5, HER2 and HER3 co-expressed on cells (HER2/3) (human, UniProt P04626 23-1255; P21860 20-1342); assay: flow cytometry on HEK 293 cells expressing HER2 and HER3, anti-VHH-488 detection, n=3
T5 construct: whole, on cells; Dubca camel fibroblasts in the periplasmic ELISA screen; also called HER2/HER3
Procedure: as §2

[13] = target: T3, human epidermal growth factor receptor …; assay: flow cytometry on HEK 293 cells expressing HER2, anti-VHH-488 detection, signal normalised to the highest signal, n=3
Procedure: as §2

[14] = target: T3, human epidermal growth factor receptor …; assay: flow cytometry on SkBr3 cells in the presence of Neuregulin-1 (NRG; the legend prints 1.8 mM), anti-VHH-488 detection, n=3
Procedure: as §2, §3

[15] = target: T5, HER2 and HER3 co-expressed on cells …; assay: flow cytometry on HEK 293 cells expressing HER2 and HER3, anti-VHH-488 detection, signal normalised to the highest signal, n=3
Procedure: as §2

[16] = target: T3, human epidermal growth factor receptor …; assay: flow cytometry on SkBr3 cells, Nb46-AF647 detected with secondary anti-VHH-488 antibody
Procedure: as §2, §3

[17] = target: T3, human epidermal growth factor receptor …; assay: flow cytometry on cells expressing HER2
human HER3, on cells [18] = target: T4, human HER3, on cells; assay: flow cytometry on cells expressing HER3
[19] = target: T5, HER2 and HER3 co-expressed on cells …; assay: flow cytometry on cells co-expressing HER2 and HER3

T1 sequence (P21860 20-643): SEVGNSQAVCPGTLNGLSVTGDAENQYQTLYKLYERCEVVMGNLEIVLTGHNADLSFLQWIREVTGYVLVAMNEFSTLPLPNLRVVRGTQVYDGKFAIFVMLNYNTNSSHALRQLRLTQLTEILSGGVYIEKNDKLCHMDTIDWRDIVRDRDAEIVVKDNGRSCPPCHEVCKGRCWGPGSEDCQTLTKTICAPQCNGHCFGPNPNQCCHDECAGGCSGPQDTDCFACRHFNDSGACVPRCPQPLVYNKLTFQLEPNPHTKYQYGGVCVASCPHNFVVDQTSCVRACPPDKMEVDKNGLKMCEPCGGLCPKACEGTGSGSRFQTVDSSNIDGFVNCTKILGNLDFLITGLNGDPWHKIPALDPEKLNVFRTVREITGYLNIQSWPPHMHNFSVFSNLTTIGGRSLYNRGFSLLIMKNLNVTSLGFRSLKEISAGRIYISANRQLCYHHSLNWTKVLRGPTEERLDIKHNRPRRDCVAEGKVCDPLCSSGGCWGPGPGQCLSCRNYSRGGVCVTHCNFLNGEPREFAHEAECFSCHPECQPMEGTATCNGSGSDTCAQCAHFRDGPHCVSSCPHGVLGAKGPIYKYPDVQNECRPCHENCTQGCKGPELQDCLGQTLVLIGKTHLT

B1: Nb46 (VHH)
VHH: QVQLQESGGGSVQAGGSLRLSCVVSGYFYYDHYYVAWFRQAPGKEREGVALINGRDSDTYYADSVKGRFTISQDSAKNTVYLQMNSLKPEDTAIYYCAANPGEAFTVLPPRVFRNWGQGTQVTVSS
notes: also called N46
binding result [1]: no binding
koff [2]: 0.00187 s⁻¹
kon [2]: 9.42e+06 M⁻¹ s⁻¹
Kd [3]: 0.8 nM
koff [4]: 0.00154 s⁻¹
kon [4]: 6.26e+06 M⁻¹ s⁻¹
koff [5]: 0.00221 s⁻¹
kon [5]: 1.26e+07 M⁻¹ s⁻¹
Kd [6]: 0.21 nM
EC50 (read off the curve) [7]: ~0.8 nM
binding result (human HER3, on cells [8]): no binding (tested: 25 nM)
EC50 (read off the curve) [9]: ~0.9 nM
Kd [10]: 0.24 nM
Kd [11]: 0.17 nM
EC50 (read off the curve) [12]: ~0.9 nM
EC50 (read off the curve) [13]: ~0.8 nM
EC50 (read off the curve) [14]: ~0.8 nM
EC50 (read off the curve) [15]: ~0.8 nM

B2: Nb46-AF647 (VHH)
VHH: QVQLQESGGGSVQAGGSLRLSCVVSGYFYYDHYYVAWFRQAPGKEREGVALINGRDSDTYYADSVKGRFTISQDSAKNTVYLQMNSLKPEDTAIYYCAANPGEAFTVLPPRVFRNWGQGTQVTVSS
modifications: Alexa Fluor 647 (NHS ester), approximately 1 mole dye/mole NB; labelled residue not stated
notes: also called N46-Af647
binding result [16]: binds

B3: Nb38 (VHH)
VHH: QVQLQESGGGSVQAGGSLKLSCVASGFTRSMGWARQAPGKEREGVVCINNYNIGSGKWYADSVKGRFTISRDNDKNTVSLQMNSLKPEDTAIYYCAASPLYLCDNSSWFAAGFAAGSHVWGQGTQVTVSS
notes: Camel VHH expressed from pMECS (C-terminal HA and 6xHis tags) and purified on Ni-NTA; also called N38
binding result [17]: no binding
binding result (human HER3, on cells [18]): no binding
binding result [19]: no binding
